{"source": "paper PMC6459899", "about": "“Pleiotropic Clostridioides difficile Cyclophilin PpiB Controls Cysteine-Tolerance, Toxin Production, the Central Metabolism and Multiple Stress Responses” (Frontiers in Pharmacology, 2019)", "target": "CdPpiB wild type fused to the T25 subunit of adenylate cyclase (pKNTB) (C. difficile str. 630Δerm) (UniProt Q18D70)", "assay": "two-hybrid; BACTH in E. coli BTH101; β-galactosidase assay (ONPG, 12 min, 30°C) in Miller Units, cultures grown o/n at 30°C with 0.5 mM IPTG"}
{"substance": "Lrp P87A fused to the T18 subunit of adenylate cyclase (natural protein)", "values": [{"measurement": "β-galactosidase activity", "value": 869, "unit": "MU"}]}
